Changes are numbered by the printed parent chain. Names may count otherwise.
T1: PUF4 RNA-binding domain (Saccharomyces cerevisiae, UniProt P25339 537-888)
T1 sequence: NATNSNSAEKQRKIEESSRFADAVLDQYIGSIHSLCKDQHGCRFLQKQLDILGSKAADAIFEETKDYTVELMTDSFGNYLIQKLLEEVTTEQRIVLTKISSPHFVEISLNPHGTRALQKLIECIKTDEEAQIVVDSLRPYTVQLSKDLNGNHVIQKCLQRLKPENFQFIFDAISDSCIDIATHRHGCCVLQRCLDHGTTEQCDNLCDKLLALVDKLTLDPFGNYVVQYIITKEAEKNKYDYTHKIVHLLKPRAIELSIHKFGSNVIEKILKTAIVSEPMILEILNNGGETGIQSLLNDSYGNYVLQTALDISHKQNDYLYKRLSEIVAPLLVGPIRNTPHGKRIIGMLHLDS

B1: Id_ii_S2_P3E.2_K3.1_C3.2_[C-2A]_[T-1C]_H3.1_A3.1_F3.1_T3.2_[A10C] (ssRNA)
RNA: UUUGAUUAAUAUGAUAUCGUUCUUUCUACUGUAUAUAUCUUCUUUCUCGAUAUCAUAUUAAUCUUU
B2: Id_ii_S2_P3E.2_K3.1_C3.2_[C-2T]_[T-1C]_H3.1_A3.1_F3.1_T3.2_[T9C]_[A10T] (ssRNA)
RNA: B1 RNA with A28U, U38C, C39U
B3: Id_ii_S2_P3E.2_K3.1_C3.2_[C-2T]_H3.1_A3.1_F3.1_T3.2_[T9A] (ssRNA)
RNA: B1 RNA with A28U, C29U, U38A, C39A
B4: Id_ii_S2_P3E.2_K3.1_C3.2_[C-2A]_[T-1A]_H3.1_A3.1_F3.1_T3.2_[T9G]_[A10C] (ssRNA)
RNA: B1 RNA with C29A, U38G
B5: Id_ii_S2_P3E.2_K3.1_C3.2_[C-2T]_[T-1C]_H3.1_A3.1_F3.1_T3.2_[T9C]_[A10G] (ssRNA)
RNA: B1 RNA with A28U, U38C, C39G
B6: Id_ii_S2_P3E.2_K3.1_C3.2_[C-2T]_H3.1_A3.1_F3.1_T3.2_[T9G]_[A10T] (ssRNA)
RNA: B1 RNA with A28U, C29U, U38G, C39U
B7: Id_ii_S2_P3E.2_K3.1_C3.2_[C-2A]_[T-1G]_H3.1_A3.1_F3.1_T3.2_[A10T] (ssRNA)
RNA: B1 RNA with C29G, C39U
B8: Id_ii_S2_P3E.2_K3.1_C3.2_[C-2G]_H3.1_A3.1_F3.1_T3.2_[T9C]_[A10T] (ssRNA)
RNA: B1 RNA with A28G, C29U, U38C, C39U
B9: Id_ii_S2_P3E.2_K3.1_C3.2_[C-2T]_[T-1A]_H3.1_A3.1_F3.1_T3.2_[T9G]_[A10C] (ssRNA)
RNA: B1 RNA with A28U, C29A, U38G
B10: Id_ii_S2_P3E.2_K3.1_C3.2_[C-2A]_[T-1C]_H3.1_A3.1_F3.1_T3.2_[T9A] (ssRNA)
RNA: B1 RNA with U38A, C39A
B11: Id_ii_S2_P3E.2_K3.1_C3.2_[C-2T]_[T-1A]_H3.1_A3.1_F3.1_T3.2_[A10T] (ssRNA)
RNA: B1 RNA with A28U, C29A, C39U
B12: Id_ii_S2_P3E.2_K3.1_C3.2_[C-2A]_[T-1G]_H3.1_A3.1_F3.1_T3.2_[A10C] (ssRNA)
RNA: B1 RNA with C29G
B13: Id_ii_S2_P3E.2_K3.1_C3.2_[C-2T]_[T-1A]_H3.1_A3.1_F3.1_T3.2_[T9G]_[A10T] (ssRNA)
RNA: B1 RNA with A28U, C29A, U38G, C39U
B14: Id_ii_S2_P3E.2_K3.1_C3.2_[C-2A]_[T-1G]_H3.1_A3.1_F3.1_T3.2_[T9A]_[A10G] (ssRNA)
RNA: B1 RNA with C29G, U38A, C39G
B15: Id_ii_S2_P3E.2_K3.1_C3.2_[C-2T]_[T-1G]_H3.1_A3.1_F3.1_T3.2_[T9G]_[A10T] (ssRNA)
RNA: B1 RNA with A28U, C29G, U38G, C39U
B16: Id_ii_S2_P3E.2_K3.1_C3.2_[C-2T]_[T-1G]_H3.1_A3.1_F3.1_T3.2_[T9C]_[A10C] (ssRNA)
RNA: B1 RNA with A28U, C29G, U38C
B17: Id_ii_S2_P3E.2_K3.1_C3.2_[C-2T]_H3.1_A3.1_F3.1_T3.2_[A10G] (ssRNA)
RNA: B1 RNA with A28U, C29U, C39G
B18: Id_ii_S2_P3E.2_K3.1_C3.2_[C-2A]_[T-1C]_H3.1_A3.1_F3.1_T3.2_[T9C]_[A10G] (ssRNA)
RNA: B1 RNA with U38C, C39G
B19: Id_ii_S2_P3E.2_K3.1_C3.2_[C-2G]_[T-1G]_H3.1_A3.1_F3.1_T3.2_[A10G] (ssRNA)
RNA: B1 RNA with A28G, C29G, C39G
B20: Id_ii_S2_P3E.2_K3.1_C3.2_[C-2G]_H3.1_A3.1_F3.1_T3.2_[T9A]_[A10G] (ssRNA)
RNA: B1 RNA with A28G, C29U, U38A, C39G
B21: Id_ii_S2_P3E.2_K3.1_C3.2_[C-2A]_[T-1A]_H3.1_A3.1_F3.1_T3.2_[T9A]_[A10T] (ssRNA)
RNA: B1 RNA with C29A, U38A, C39U
B22: Id_ii_S2_P3E.2_K3.1_C3.2_[C-2T]_[T-1A]_H3.1_A3.1_F3.1_T3.2_[T9A]_[A10C] (ssRNA)
RNA: B1 RNA with A28U, C29A, U38A
B23: Id_ii_S2_P3E.2_K3.1_C3.2_[C-2T]_H3.1_A3.1_F3.1_T3.2_[T9A]_[A10T] (ssRNA)
RNA: B1 RNA with A28U, C29U, U38A, C39U
B24: Id_ii_S2_P3E.2_K3.1_C3.2_[C-2G]_H3.1_A3.1_F3.1_T3.2_[A10C] (ssRNA)
RNA: B1 RNA with A28G, C29U
B25: Ib_S1_P5E.1_K5.1_C5.1_H5.1_[T1A]_A5.1_F5.1_[T8G]_T5.1 (ssRNA)
RNA: UCUCUUAGUAUUAGUAUCUCUU
B26: Ib_S1_P5E.1_K5.1_C5.1_H5.1_[T1C]_A5.1_F5.1_[T8G]_T5.1 (ssRNA)
RNA: UCUCUUCGUAUUAGUAUCUCUU
B27: Ia_S1_P5E.1_K5.1_C5.1_H5.1_A5.1_F5.1_[T9A]_T5.1 (ssRNA)
RNA: UCUCUUUGUAUUAUAAUCUCUU
B28: Ib_S1_P5E.1_K5.1_C5.1_H5.1_[G2A]_A5.1_F5.1_[T8C]_T5.1 (ssRNA)
RNA: UCUCUUUAUAUUACUAUCUCUU
B29: Ib_S1_P5E.1_K5.1_C5.1_H5.1_A5.1_F5.1_[T9A]_[A10T]_T5.1 (ssRNA)
RNA: UCUCUUUGUAUUAUAUUCUCUU

Target: T1, PUF4 RNA-binding domain
Assay: Mg; RNA-MaP; 20 mM Na-HEPES pH 7.4, 30 mM KOAc, 0.75 mM MgCl2, 0.1% Tween-20, 5% glycerol, 0.1 mg/mL BSA, 2 mM DTT; 25 C; 0.0125-409.6 nM protein
Conditions: tags: N-His6-TEV cleaved; C-SNAP kept, Cy3B-labelled; label: tethered on chip by stalled RNA polymerase

Row | Binder | Kd
1 | B1 | 1.69 nM
2 | B2 | 4.12 nM
3 | B3 | 6.87 nM
4 | B4 | 10 nM
5 | B5 | 7.76 nM
6 | B6 | 2.77 nM
7 | B7 | 4.88 nM
8 | B8 | 44.5 nM
9 | B9 | 5.76 nM
10 | B10 | 3.66 nM
11 | B11 | 3.9 nM
12 | B12 | 38.5 nM
13 | B13 | 7.14 nM
14 | B14 | 10.2 nM
15 | B15 | 3.09 nM
16 | B16 | 26.5 nM
17 | B17 | 2.61 nM
18 | B18 | 49.4 nM
19 | B19 | 5.15 nM
20 | B20 | 7.87 nM
21 | B21 | 10.1 nM
22 | B22 | 16.3 nM
23 | B23 | 4.47 nM
24 | B24 | 8.98 nM
25 | B25 | > 2300 nM
26 | B26 | > 2300 nM
27 | B27 | 2.37 nM
28 | B28 | 728 nM
29 | B29 | 1.1 nM

Reference: paper PMC9352680, “A comprehensive thermodynamic model for RNA binding by the Saccharomyces cerevisiae Pumilio protein PUF4”
